Four substances from patent US20050287542 can be followed below.

For one series, the target named is G56 (GCN4 bZIP element) (UniProt P03069). Kind of series: EMSA. (In general: In EMSA bound probe runs differently from free probe, usually more slowly.)
Series [1] relates to T1, PPBR4SR (PPBR4) (Artificial Sequence).
T1 sequence: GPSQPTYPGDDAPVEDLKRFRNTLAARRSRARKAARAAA
Kind of series: EMSA.

The target in series [2] is G27 (isolated GCN4 basic region) (UniProt P03069). As to the kind of experiment: EMSA.
Series [3] relates to T2, PPBR2SR (Artificial Sequence).
T2 sequence: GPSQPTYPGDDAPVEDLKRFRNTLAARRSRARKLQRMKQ
Kind of series: EMSA. As to conditions: physiological ionic strength, on ice.

Series [4] deals with T3, PPBR4-deltaSR (Artificial Sequence).
T3 sequence: T1 sequence with A31L
Kind of series: EMSA. As to conditions: hydrophobic core disrupted; scale: kcal/mol less stable than PPBR4SR-hsCRE24.

Series [5] has as its system p007 (Artificial Sequence). Kind of series: EMSA.
The test system of series [6] is p011 (Artificial Sequence). As to the kind of experiment: EMSA. Particulars: 4 C.
The test system of series [7] is p012 (Artificial Sequence). As to the kind of experiment: EMSA. As to conditions: 4 C.
In series [8] the test system is p016 (Artificial Sequence). As to the kind of experiment: EMSA. As to conditions: 4 C.
Series [9] deals with PPBR4 on phage (Artificial Sequence). As to the kind of experiment: pulldown. As to conditions: phage panning, PBS, 0.1% NP-40, 2.5 ug/ml poly-dIdC, 4 C.
Series [10] relates to aPP (avian pancreatic polypeptide) (avian). As to the kind of experiment: pulldown. As to conditions: phage panning, negative control; computed from the stated 10-fold.
Series [11] has as its system p007 (Artificial Sequence). Particulars: scale: fold average specificity ratio for hsCRE over any site in CT DNA.

Residue numbers refer to the chain shown, from its start.

hsCEBP24: the binding signal with G56 (GCN4 bZIP element) (ddG -2.9 kcal/mol, scale: fold specificity ratio for hsCRE24 over hsCEBP24) stood at 180; in series [1] (ddG -4.4 kcal/mol, scale: fold specificity ratio for hsCRE24 over hsCEBP24), 2600.
As a reminder, the Kd is the constant that tells how readily two partners part at equilibrium. As for hsCRE24, the Kd in [2] (4 C) came to 410 nM; in series [3], 5 nM; in [1] (PPBR4, 4 C), 1.9 nM; in series [1] (physiological ionic strength, on ice) it was 1.5 nM; in [5] (4 C, PBS-type buffer with 1 mM EDTA) it was 0.023 nM; in series [5] (25 C), 1.6 nM. Further, the results for the dissociation constant (Kd) in series [6], in series [7] and in [8] were 1.5 nM, 2.5 nM and 0.3 nM, respectively. Moreover, the binding signal came to 3.1 in series [2] (lacks polyproline helix and turn, scale: kcal/mol less stable than PPBR4SR-hsCRE24); 3.2 in series [4]. This substance also gave a binding signal (fold preference over hsCEBP24) with G56 (GCN4 bZIP element) of 180.
hsCRE24 on beads yielded a binding signal (fold retention over aPP phage) in series [9] of 10. Besides, the binding signal (fold retention relative to PPBR4 phage) in series [10] amounted to 0.1.
As to calf thymus DNA, the binding signal in [11] turned out to be 4170.
